Test: protein stability index of a GFP-peptide fusion (GPS, HEK-293T) (PSI 1-6); higher = more stable
Conditions: c terminus: native
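Note: lentivirally expressed fusion library, cells FACS-sorted into six equal-sized GFP/DsRed ratio bins, PSI computed from sequencing read fractions per bin weighted by bin number.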

Q: With DGWIRVSSDNVADLHEKYSGSTPH [PSMB5 addH] as the protein, how does the protein stability index (parent: NP_002788.1) read?
A: 3.83

Q: Which protein stability index (parent: NP_002788.1) does the source give for DGWIRVSSDNVADLHEKYSGSTPS [PSMB5 addS] here?
A: 3.98

Q: Which protein stability index (parent: NP_006221.1) does the source give for CQPISFSGFGAEDDDLGGLGLGPH [POLD2 addH] here?
A: 2.24

Q: Which protein stability index (parent: NP_006221.1) does the source give for CQPISFSGFGAEDDDLGGLGLGPS [POLD2 addS] here?
A: 2.6

Q: For LPALFTDLYSQEITAEEAREALPH [SNF8 addH], which protein stability index (parent: NP_009172.2) is on record?
A: 4.88

Q: For LPALFTDLYSQEITAEEAREALPS [SNF8 addS], which protein stability index (parent: NP_009172.2) is on record?
A: 4.4

Q: For EQRNSRWNTVLRAVKAKTHHLEPH [TRPA1 addH], which protein stability index (parent: NP_015628.1) is on record?
A: 5.05

Q: With EQRNSRWNTVLRAVKAKTHHLEPS [TRPA1 addS] as the protein, how does the protein stability index (parent: NP_015628.1) read?
A: 4.6

Q: Which protein stability index (parent: NP_116010.1) does the source give for HSLRAVSTDPPHHDHHDEFCLMPS [BEX2 addS] here?
A: 3.84

— the supplement of paper PMC10567573
